The source of these data is patent US20200087297A1 (Genentech, published 2020).

Where “and” joins values, the source holds several entries; their conditions need not be identical. Equal values may be shown once. Read-outs that look alike come from different tables or passages of the source.

The target in experiment [1] is T1, NaPi2b (SLC34A2, type II sodium-dependent phosphate transporter 3b) (human, UniProt O95436 1-690).
T1 sequence (looked up): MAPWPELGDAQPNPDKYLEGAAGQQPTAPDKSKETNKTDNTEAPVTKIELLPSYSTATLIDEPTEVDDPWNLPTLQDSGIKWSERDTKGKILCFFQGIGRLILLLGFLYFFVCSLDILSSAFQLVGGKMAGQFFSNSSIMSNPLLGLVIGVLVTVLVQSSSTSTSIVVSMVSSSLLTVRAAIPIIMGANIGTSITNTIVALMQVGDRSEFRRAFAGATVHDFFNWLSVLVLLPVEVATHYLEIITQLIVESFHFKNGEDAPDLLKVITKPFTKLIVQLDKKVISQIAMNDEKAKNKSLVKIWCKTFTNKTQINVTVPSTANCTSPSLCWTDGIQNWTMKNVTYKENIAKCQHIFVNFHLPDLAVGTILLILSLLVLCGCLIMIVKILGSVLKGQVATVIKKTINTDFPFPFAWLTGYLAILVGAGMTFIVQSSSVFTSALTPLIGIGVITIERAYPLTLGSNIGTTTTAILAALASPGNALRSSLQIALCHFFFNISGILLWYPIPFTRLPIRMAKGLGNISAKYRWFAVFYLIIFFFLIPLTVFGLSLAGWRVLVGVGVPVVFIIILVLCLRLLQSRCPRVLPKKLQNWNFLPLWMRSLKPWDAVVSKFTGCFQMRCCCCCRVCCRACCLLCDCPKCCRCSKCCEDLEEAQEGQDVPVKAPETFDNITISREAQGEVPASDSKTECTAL
The experiment can be described thus: cell-based or functional assay.

Experiment [2] has as its target T1, NaPi2b (SLC34A2, type II …). The experiment can be described thus: cell-based or functional assay. This is another data set of the same source.

B1: Anti-Napi2b 10H1.11.4B LC K149C MC-Sq-Cit-PAB-Tubulysin M (antibody, DAR 1, V domains shown)
VH: EVQLVESGGGLVQPGGSLRLSCAASGFSFSDFAMSWVRQAPGKGLEWVATIGRVAFHTYYPDSMKGRFTISRDNSKNTLYLQMNSLRAEDTAVYYCARHRGFDVGHFDFWGQGTLVTVSS
VL: DIQMTQSPSSLSASVGDRVTITCRSSETLVHSSGNTYLEWYQQKPGKAPKLLIYRVSNRFSGVPSRFSGSGSGTDFTLTISSLQPEDFATYYCFQGSFNPLTFGQGTKVEIKR
Take B1: in experiment [1], the “IGROV-1 IC50 (EdU Prolif assay)” value is 2.07 nM and 310 ng/mL; the “OVCAR-3x2.1 IC50 (EdU Prolif assay)” value was 151 ng/mL and 1 nM.

B2: Anti-Napi2b 10H1.11.4B LC K149C MC-Sq-Cit-PAB Dolastatin 10 (antibody, DAR 1, V domains shown)
VH: EVQLVESGGGLVQPGGSLRLSCAASGFSFSDFAMSWVRQAPGKGLEWVATIGRVAFHTYYPDSMKGRFTISRDNSKNTLYLQMNSLRAEDTAVYYCARHRGFDVGHFDFWGQGTLVTVSS
VL: DIQMTQSPSSLSASVGDRVTITCRSSETLVHSSGNTYLEWYQQKPGKAPKLLIYRVSNRFSGVPSRFSGSGSGTDFTLTISSLQPEDFATYYCFQGSFNPLTFGQGTKVEIKR
B2: in experiment [2], the “IGROV-1 IC50 (EdU Prolif assay)” value is 3.19 nM and 478 ng/mL; the “OVCAR-3x2.1 IC50 (EdU Prolif assay)” value was 1.52 nM and 228 ng/mL.
